Test results as given in the DeepSol protein solubility set.

Experiment: soluble on expression in E. coli; label from the status in PepcDB or PDB records

Sequence	soluble on expression in E. coli
MGSDKIHHHHHHMRTEFIPPSVTRAAFRLPTLSRLPPLTALRAFVVAARHASFSRAAEELHVSTAAIGQQVRILETHLGQPLFSRQRGELVLTDAGSTLYPGLADAFETMIGSLSDLMASGSRRQVKVLAEGCFAARWLAPRLGRIVPALGDVDIWIESLEGDAIDLTQFDADCAIVATHGQIPGFIHEPLFADTVSAVCTPDFAARHQLCGEPERLRDISFAMLRGNGGDAAFEWANWLRACRIPLRLSATGPRFSRQTALIEAILSGHGIGLARHSLISDELKSGRLIAAFGTPQPTASRYHLLTSPDRRRLPEIASLLALLREDIRSLEAAA	not soluble
GVVIREALSSSNAVPAIDFDRKELIDIPAYQGPGKNVVRPPVDLDPSYNPFKETGLTEPIRSSRRQSPDMGWNELFKQFEAKRDAEKMAEPPIRSEELFASTDFTPSAVSATPSTDMLCYVHRGRYLVTTLSRGLALVDFHRAHKRILYDRFMADESRRHIEQQQLLFPELLEFNPSDASAVKAAVDELQSVGFDLSPLGVSSYSLLAAPVQIIDCAADVVRDVIHTTLEDGRSSHEQMLELIATQIAEYQAIPCGKTPTAEEASDLLAELFASNDSTYTPDGKLIVSIIEEADIARRFE	not soluble
MRCPWLIRVGVDIGGTFTDLIVFDEGSGRLESLKVLTTPREPWVGVIRALEEASVDIEGVDVVIHATTLGTNMFLGQEGLEPPSAVLITNRGFRDVLEIGRQNRPELYNLYFTRPKPLVPRDRRLVVKGRIDARGNVVEDIDRGEVARLAKEWCGRADVFIVSMLNSHINPVHEDEIGSIITREC	not soluble
MDNDRDTVEFWSSLFQSFADSEPKDNPYPVVRSPIMTMSTPMAIDEPVEPWKVLEYGGKEVRPMAIDEPAEPWKALEYGGKDVRPMAIDVPAEPWKVGGKEAQPANAAAEAGYKNVNTDQEKSTQKATEKVIM	soluble
MGSSLSNLNDGTNGLAMGPGLGDIPESCVACVFMYLTPPEICNLAGLNRSFRGAASSDSVWEKKLPENYQDLLDLLPPERYHSLSKKDIFAVLSRPIPFDDDNKEVWIDRVTGRVCMAISARGMSITGIEDRRYWNWIPTEESRFHVVAYLQQIWWFEVDGTVRFHLPPGVYSLSFRIHLGRFTKRLGRRVCHFELTHGWDLKPVRFSLSTSDGQEASCEYYLDDVERNEALGKHKRGYWIEYRVGEFIVNGSEPSTEIQWSMKQIDCTHSKGGLCVDSVFINPIGDVKEHKRKAVLKEA	soluble
MTKSRKQKQKKQDFLRKKLKVGKPKEKARNATDTSFVSKTISIRNQHLDQNPHDLTKRLTLLKHHNINVRKETLTTFQKSIPSIIKSRLMTPLLTQSIPLICDESQQVRQGLIDLVDEIGSHDAEILKLHCNIFVLYINMAMTHIVTQIQADSTKFLSHLLKYCGDEVVRKSWVKLLNGVFGVLGWGQVGKNDSASIVQTKKRNAKYVTIHLNALYTLVEYGCQDERARSDGDTAETTEDSGTLRNPYLIPDYPQPFEHLKLFTRELKVQDATSSGVNATLLSLATQDIDTRKAVFIEQFLPIVRKKIEVIIKEGGECGKSANKLKTLLAKIFD	soluble
MGHHHHHHSHAELSANQSRIDALEKAGQKLIDVNHYAKDEVAARMNEVISLWKKLLEATELKGIKLREANQQQQFNRNVEDIELWLYEVEGHLASDDYGKDLTNVQNLQKKHALLEADVAAHQDRIDGITIQARQFQDAGHFDAENIKKKQEALVARYEALKEPMVARKQKLADSLRLQQLFRDVEDEETWIREKEPIAASTNRGKDLIGVQNLLKKHQALQAEIAGHEPRIKAVTQKGNAMVEEGHFAAEDVK	soluble
GNGFDVENYKDKEIVIVAGGTGVSPVRGVVEYFAKNSKEAKSVTLIAGFKTPKDILFSEDFKEWKNNINIILTVDSAEGDSNFKEGLVTKYIPELKLQNVKEASAIVVGPPAMMRFSTQGLLDVGFKEENMWISQERKMCCGIGKCGHCKIDDVY	not soluble
MSDDLSAFFAKKKDKKKKSAVKIEEVGQALERRAKRQEEYEQESEDVSEKRVEEEKAVNPNEESEWIEYGESQGRLDGLKIKDMGLESEQDQVNNEEPEDREVHETKTWGQVSSEKKATEEPEQAVTISDKAMAAAYKPPAMRRPGAPYRPRAAAANLDMGSDAAFPSLADASKIEKNKKEESKSPGGWVKAGSGGAWPGSSGPSSSGSSRSYPTTAGSGRDSALAALKMMSAANPAPARNEPAPAPAAAAPASSGAAKAGSYVPPHLRKNQ	not soluble
MSLSSKEYFSDTDSFENTPCPLCGSESSSLLYEINSYKYNKCNNCELVYLNPRLKEESLLEYYAQDSFYAEYSSGTGYEIQERALRSTFSRYMKELHKRNVTGGKLLEIGCGFGFLLDEAKNYFDYRIGTDFSSEAVSHAKKYADNVYCGGLEAIPSDTSTKFDCVITFSVLEHVYNPNTFIQEIQNYMAPNGSLVVSTPFIGGMWYKILGKKWSFFIPPEHVCLYNHNSISQLLKQNGFKNIEMFISSHAWPVAGFLSKMGMRKLSSMTLKLKIGDVPLFVPFTIINIIGSKEGHHHHHH	soluble
SRQHTSISDYDVMILDLTDVPMLDVTVGLALENAIKDALDARCEVYLLCPNQRTREQLEKFHVIDLVPDNNMYQFRYEALNAAVAHVESDQYQRMTA	not soluble
PQQSTWQMATNTPLECRLVHPIPNYGDAEFSSRAGKKINLDFELKMRRPMGDTRNVSLVSMPPVWRPGEGADRITNLQFFKQFDGYIGGQTAWSLLSELEKGRYPTFSYQDWQSRDQRIEVALSSVLFQQPYNEFSDCISKLLPYS	not soluble
MGSDKIHHHHHHMDFSDEKMPFLADAVDRVRVEECFRQCLVIAQNFRVQNIRVIRHKLGRRCLIEYELMDDVGEIITLIGKVRAKGTDFHSYELQKSLWESGFADDSADGISVPEPVGIIPEWQMWLQRRVEGVTATQILSQTNGIFPAKLIAEAAYKLHQANIIPRRSHRMSDELRILHERIPLVMEQYPQWQRRLERILLASDDLGANTPELKLCGIHRDFYPDQVIMNNSRLYLLDLDLYCAGNPAVDIGNFIAHLQEYSLRTVGNPQALQEYEDILKTRFLQLTGDEFSLAIQAYTILTLVRHIYISTLFPERRPFTAALLHLCEQRLNITHNS	not soluble
MSLDVINQLPSPEALLEELHRVVSKPIRLMVVCGTHNRAILRYGIREELPDFIELVAGPGCSVCVMPTGHVDAFVKVARQPDVITATCEDLLKVRGSKESLADVLNEGVHRVEIISSPRQALELAYVEEDKIVVYPAVGFEATAPSIAETILEAAQNGVGNFCVIPSIRLLPPTIDALLLDPQLSIQGLLCSDHINTISDTEAYADLARKHSLSCCIAGFEKAEILQGILSMVKQIHRGESMVDASGAMVYSMEETARARRVVEEVFFPTETAWRGLGSIAESGFVIRDELALYDATKRFNVRFAEGTDQCMCHCNEIISGRALPPDCPAFGMACTLQNPVGPCMISNEGICAAYFKYKLESSRFSRLDVEGHHHHHH	soluble
MDYSEIMVRHGELSTKGKNRMRFINKLKNNIQDVLAPFPAITVRSDRDRTHVSLNGTDYQPIVEALKLVFGVQALSPVYKLEKSVPLLVTAVQDIMTSLYRDGLTFKIATKRSDHAFELDSRELNSLLGGAVFEVLPNIQAQMKHPDVTLKVEIRDEAAYISYEEIKGAGGLPVGTSGKGMLMLSGGIDSPVAGYLALKRGLDIEVVHFASPPYTSPGALAKAQDLTRRLTRFGGNIQFIEVPFTEIQEEIKNKAPEAYLMTLTRRFMMRITDAIREQRKGLVIVNGESLGQVASQTLESMQAINAVTSTPIIRPVVTMDKLEIIEMAQAIDTFDISIQPFEDCCTIFAPDRPKTNPKLGNAEKYEECFDIDGLVQRAVSGIVVTEITPEIVNDEVENLIDALL	not soluble
MGSDKIHHHHHHMAQQTPLYEQHTLCGARMVDFHGWMMPLHYGSQIDEHHAVRTDAGMFDVSHMTIVDLRGSRTREFLRYLLANDVAKLTKSGKALYSGMLNASGGVIDDLIVYYFTEDFFRLVVNSATREKDLSWITQHAEPFGIEITVRDDLSMIAVQGPNAQAKAATLFNDAQRQAVEGMKPFFGVQAGDLFIATTGYTGEAGYEIALPNEKAADFWRALVEAGVKPCGLGARDTLRLEAGMNLYGQEMDETISPLAANMGWTIAWEPADRDFIGREALEVQREHGTEKLVGLVMTEKGVLRNELPVRFTDAQGNQHEGIITSGTFSPTLGYSIALARVPEGIGETAIVQIRNREMPVKVTKPVFVRNGKAVA	not soluble
